Consider five proteins from article PMC9302676.

The Km is the substrate concentration at which the rate is half of its maximum.

B1: P450 BM3 (CYP102A1) (Priestia megaterium NBRC 15308 = ATCC 14581) (protein)
chain: MTIKEMPQPKTFGELKNLPLLNTDKPVQALMKIADELGEIFKFEAPGRVTRYLSSQRLIKEACDESRFDKNLSQALKFVRDFAGDGLFTSWTHEKNWKKAHNILLPSFSQQAMKGYHAMMVDIAVQLVQKWERLNADEHIEVPEDMTRLTLDTIGLCGFNYRFNSFYRDQPHPFITSMVRALDEAMNKLQRANPDDPAYDENKRQFQEDIKVMNDLVDKIIADRKASGEQSDDLLTHMLNGKDPETGEPLDDENIRYQIITFLIAGHETTSGLLSFALYFLVKNPHVLQKAAEEAARVLVDPVPSYKQVKQLKYVGMVLNEALRLWPTAPAFSLYAKEDTVLGGEYPLEKGDELMVLIPQLHRDKTIWGDDVEEFRPERFENPSAIPQHAFKPFGNGQRACIGQQFALHEATLVLGMMLKHFDFEDHTNYELDIKETLTLKPEGFVVKAKSKKIPLGGIPSPSTEQSAKKVRKKAENAHNTPLLVLYGSNMGTAEGTARDLADIAMSKGFAPQVATLDSHAGNLPREGAVLIVTASYNGHPPDNAKQFVDWLDQASADEVKGVRYSVFGCGDKNWATTYQKVPAFIDETLAAKGAENIADRGEADASDDFEGTYEEWREHMWSDVAAYFNLDIENSEDNKSTLSLQFVDSAADMPLAKMHGAFSTNVVASKELQQPGSARSTRHLEIELPKEASYQEGDHLGVIPRNYEGIVNRVTARFGLDASQQIRLEAEEEKLAHLPLAKTVSVEELLQYVELQDPVTRTQLRAMAAKTVCPPHKVELEALLEKQAYKEQVLAKRLTMLELLEKYPACEMKFSEFIALLPSIRPRYYSISSSPRVDEKQASITVSVVSGEAWSGYGEYKGIASNYLAELQEGDTITCFISTPQSEFTLPKDPETPLIMVGPGTGVAPFRGFVQARKQLKEQGQSLGEAHLYFGCRSPHEDYLYQEELENAQSEGIITLHTAFSRMPNQPKTYVQHVMEQDGKKLIELLDQGAHFYICGDGSQMAPAVEATLMKSYADVHQVSEADARLWLQQLEEKGRYAKDVWAG
B2: P450 BM3 (CYP102A1) (Priestia megaterium NBRC 15308 = ATCC 14581; N320L/T412V) (protein)
chain: MTIKEMPQPKTFGELKNLPLLNTDKPVQALMKIADELGEIFKFEAPGRVTRYLSSQRLIKEACDESRFDKNLSQALKFVRDFAGDGLFTSWTHEKNWKKAHNILLPSFSQQAMKGYHAMMVDIAVQLVQKWERLNADEHIEVPEDMTRLTLDTIGLCGFNYRFNSFYRDQPHPFITSMVRALDEAMNKLQRANPDDPAYDENKRQFQEDIKVMNDLVDKIIADRKASGEQSDDLLTHMLNGKDPETGEPLDDENIRYQIITFLIAGHETTSGLLSFALYFLVKNPHVLQKAAEEAARVLVDPVPSYKQVKQLKYVGMVLLEALRLWPTAPAFSLYAKEDTVLGGEYPLEKGDELMVLIPQLHRDKTIWGDDVEEFRPERFENPSAIPQHAFKPFGNGQRACIGQQFALHEAVLVLGMMLKHFDFEDHTNYELDIKETLTLKPEGFVVKAKSKKIPLGGIPSPSTEQSAKKVRKKAENAHNTPLLVLYGSNMGTAEGTARDLADIAMSKGFAPQVATLDSHAGNLPREGAVLIVTASYNGHPPDNAKQFVDWLDQASADEVKGVRYSVFGCGDKNWATTYQKVPAFIDETLAAKGAENIADRGEADASDDFEGTYEEWREHMWSDVAAYFNLDIENSEDNKSTLSLQFVDSAADMPLAKMHGAFSTNVVASKELQQPGSARSTRHLEIELPKEASYQEGDHLGVIPRNYEGIVNRVTARFGLDASQQIRLEAEEEKLAHLPLAKTVSVEELLQYVELQDPVTRTQLRAMAAKTVCPPHKVELEALLEKQAYKEQVLAKRLTMLELLEKYPACEMKFSEFIALLPSIRPRYYSISSSPRVDEKQASITVSVVSGEAWSGYGEYKGIASNYLAELQEGDTITCFISTPQSEFTLPKDPETPLIMVGPGTGVAPFRGFVQARKQLKEQGQSLGEAHLYFGCRSPHEDYLYQEELENAQSEGIITLHTAFSRMPNQPKTYVQHVMEQDGKKLIELLDQGAHFYICGDGSQMAPAVEATLMKSYADVHQVSEADARLWLQQLEEKGRYAKDVWAG
B3: P450 BM3 (CYP102A1) (Priestia megaterium NBRC 15308 = ATCC 14581; N320L/T437A) (protein)
chain: MTIKEMPQPKTFGELKNLPLLNTDKPVQALMKIADELGEIFKFEAPGRVTRYLSSQRLIKEACDESRFDKNLSQALKFVRDFAGDGLFTSWTHEKNWKKAHNILLPSFSQQAMKGYHAMMVDIAVQLVQKWERLNADEHIEVPEDMTRLTLDTIGLCGFNYRFNSFYRDQPHPFITSMVRALDEAMNKLQRANPDDPAYDENKRQFQEDIKVMNDLVDKIIADRKASGEQSDDLLTHMLNGKDPETGEPLDDENIRYQIITFLIAGHETTSGLLSFALYFLVKNPHVLQKAAEEAARVLVDPVPSYKQVKQLKYVGMVLLEALRLWPTAPAFSLYAKEDTVLGGEYPLEKGDELMVLIPQLHRDKTIWGDDVEEFRPERFENPSAIPQHAFKPFGNGQRACIGQQFALHEATLVLGMMLKHFDFEDHTNYELDIKEALTLKPEGFVVKAKSKKIPLGGIPSPSTEQSAKKVRKKAENAHNTPLLVLYGSNMGTAEGTARDLADIAMSKGFAPQVATLDSHAGNLPREGAVLIVTASYNGHPPDNAKQFVDWLDQASADEVKGVRYSVFGCGDKNWATTYQKVPAFIDETLAAKGAENIADRGEADASDDFEGTYEEWREHMWSDVAAYFNLDIENSEDNKSTLSLQFVDSAADMPLAKMHGAFSTNVVASKELQQPGSARSTRHLEIELPKEASYQEGDHLGVIPRNYEGIVNRVTARFGLDASQQIRLEAEEEKLAHLPLAKTVSVEELLQYVELQDPVTRTQLRAMAAKTVCPPHKVELEALLEKQAYKEQVLAKRLTMLELLEKYPACEMKFSEFIALLPSIRPRYYSISSSPRVDEKQASITVSVVSGEAWSGYGEYKGIASNYLAELQEGDTITCFISTPQSEFTLPKDPETPLIMVGPGTGVAPFRGFVQARKQLKEQGQSLGEAHLYFGCRSPHEDYLYQEELENAQSEGIITLHTAFSRMPNQPKTYVQHVMEQDGKKLIELLDQGAHFYICGDGSQMAPAVEATLMKSYADVHQVSEADARLWLQQLEEKGRYAKDVWAG
B4: P450 BM3 (CYP102A1) (Priestia megaterium NBRC 15308 = ATCC 14581; N320L/T412V/T437A) (protein)
chain: MTIKEMPQPKTFGELKNLPLLNTDKPVQALMKIADELGEIFKFEAPGRVTRYLSSQRLIKEACDESRFDKNLSQALKFVRDFAGDGLFTSWTHEKNWKKAHNILLPSFSQQAMKGYHAMMVDIAVQLVQKWERLNADEHIEVPEDMTRLTLDTIGLCGFNYRFNSFYRDQPHPFITSMVRALDEAMNKLQRANPDDPAYDENKRQFQEDIKVMNDLVDKIIADRKASGEQSDDLLTHMLNGKDPETGEPLDDENIRYQIITFLIAGHETTSGLLSFALYFLVKNPHVLQKAAEEAARVLVDPVPSYKQVKQLKYVGMVLLEALRLWPTAPAFSLYAKEDTVLGGEYPLEKGDELMVLIPQLHRDKTIWGDDVEEFRPERFENPSAIPQHAFKPFGNGQRACIGQQFALHEAVLVLGMMLKHFDFEDHTNYELDIKEALTLKPEGFVVKAKSKKIPLGGIPSPSTEQSAKKVRKKAENAHNTPLLVLYGSNMGTAEGTARDLADIAMSKGFAPQVATLDSHAGNLPREGAVLIVTASYNGHPPDNAKQFVDWLDQASADEVKGVRYSVFGCGDKNWATTYQKVPAFIDETLAAKGAENIADRGEADASDDFEGTYEEWREHMWSDVAAYFNLDIENSEDNKSTLSLQFVDSAADMPLAKMHGAFSTNVVASKELQQPGSARSTRHLEIELPKEASYQEGDHLGVIPRNYEGIVNRVTARFGLDASQQIRLEAEEEKLAHLPLAKTVSVEELLQYVELQDPVTRTQLRAMAAKTVCPPHKVELEALLEKQAYKEQVLAKRLTMLELLEKYPACEMKFSEFIALLPSIRPRYYSISSSPRVDEKQASITVSVVSGEAWSGYGEYKGIASNYLAELQEGDTITCFISTPQSEFTLPKDPETPLIMVGPGTGVAPFRGFVQARKQLKEQGQSLGEAHLYFGCRSPHEDYLYQEELENAQSEGIITLHTAFSRMPNQPKTYVQHVMEQDGKKLIELLDQGAHFYICGDGSQMAPAVEATLMKSYADVHQVSEADARLWLQQLEEKGRYAKDVWAG
B5: P450 BM3 (CYP102A1) (Priestia megaterium NBRC 15308 = ATCC 14581; T412V/T437A) (protein)
chain: MTIKEMPQPKTFGELKNLPLLNTDKPVQALMKIADELGEIFKFEAPGRVTRYLSSQRLIKEACDESRFDKNLSQALKFVRDFAGDGLFTSWTHEKNWKKAHNILLPSFSQQAMKGYHAMMVDIAVQLVQKWERLNADEHIEVPEDMTRLTLDTIGLCGFNYRFNSFYRDQPHPFITSMVRALDEAMNKLQRANPDDPAYDENKRQFQEDIKVMNDLVDKIIADRKASGEQSDDLLTHMLNGKDPETGEPLDDENIRYQIITFLIAGHETTSGLLSFALYFLVKNPHVLQKAAEEAARVLVDPVPSYKQVKQLKYVGMVLNEALRLWPTAPAFSLYAKEDTVLGGEYPLEKGDELMVLIPQLHRDKTIWGDDVEEFRPERFENPSAIPQHAFKPFGNGQRACIGQQFALHEAVLVLGMMLKHFDFEDHTNYELDIKEALTLKPEGFVVKAKSKKIPLGGIPSPSTEQSAKKVRKKAENAHNTPLLVLYGSNMGTAEGTARDLADIAMSKGFAPQVATLDSHAGNLPREGAVLIVTASYNGHPPDNAKQFVDWLDQASADEVKGVRYSVFGCGDKNWATTYQKVPAFIDETLAAKGAENIADRGEADASDDFEGTYEEWREHMWSDVAAYFNLDIENSEDNKSTLSLQFVDSAADMPLAKMHGAFSTNVVASKELQQPGSARSTRHLEIELPKEASYQEGDHLGVIPRNYEGIVNRVTARFGLDASQQIRLEAEEEKLAHLPLAKTVSVEELLQYVELQDPVTRTQLRAMAAKTVCPPHKVELEALLEKQAYKEQVLAKRLTMLELLEKYPACEMKFSEFIALLPSIRPRYYSISSSPRVDEKQASITVSVVSGEAWSGYGEYKGIASNYLAELQEGDTITCFISTPQSEFTLPKDPETPLIMVGPGTGVAPFRGFVQARKQLKEQGQSLGEAHLYFGCRSPHEDYLYQEELENAQSEGIITLHTAFSRMPNQPKTYVQHVMEQDGKKLIELLDQGAHFYICGDGSQMAPAVEATLMKSYADVHQVSEADARLWLQQLEEKGRYAKDVWAG

Substrate in the data set: CC1=CC(=O)CC(C)(C)C1
In words: purified protein. The following applies: 1 μM enzyme, 1 mM NADPH, KPi 50 mM pH 7.4, 2-50 mM substrate, 30.0 °C.
B1: the Km came to 10.95 ± 0.80 mM.
With B2 the figure was 17.67 ± 0.46 mM; with B3, 10.09 ± 0.18 mM.
In the case of B4, the Michaelis constant (Km) stood at 8.29 ± 0.77 mM.
The value for B5 was 11.39 ± 0.84 mM.
